Measurements published in US20250152742A1, “COMPOSITIONS AND METHODS FOR NEUROLOGICAL DISEASES” (Trames Bio, Inc., priority 2022, published 2025).

Test system: engineered chimeric receptor SEQ ID NO: 33 and its mutants (human α7-nAChR ligand binding domain / human GlyRα1 ion pore domain) in Lenti-X 293T cells
Assay: YFP fluorescence quenching anion reporter plate reader assay (percent quench, EC50)
Assay type: cell-based
Details: for YFP fluorescence quenching using CNL001 (percent quench): receptor named in row; for YFP fluorescence quenching using Facinicline, 30 nM fac: ligand Facinicline 30 nM; for YFP fluorescence quenching using Facinicline, 300 nM fac: ligand Facinicline 300 nM; for YFP fluorescence quenching using Facinicline, 30 uM fac: ligand Facinicline 30 uM; for YFP fluorescence quenching using TC-6987, 1 uM tc6987: ligand TC-6987 1 uM; for YFP fluorescence quenching using TC-6987, 10 uM tc6987: ligand TC-6987 10 uM; for YFP fluorescence quenching using TC-6987, 500 uM tc6987: ligand TC-6987 500 uM; for YFP fluorescence quenching using Varenicline, 3 nM var: ligand Varenicline 3 nM; for YFP fluorescence quenching using Varenicline, 30 nM var: ligand Varenicline 30 nM; for YFP fluorescence quenching using Varenicline, 300 nM var: ligand Varenicline 300 nM; for YFP fluorescence quenching using Varenicline, 500 nM var: ligand Varenicline 500 nM; for YFP fluorescence quenching using Varenicline, 1 uM var: ligand Varenicline 1 uM
Procedure, shortened: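 Percent quench compares mean YFP signal over the final 10 s with the 15 s baseline before ligand, added in iodide-containing extracellular solution (pH 7.2). Cells were LX293T carrying a YFP anion reporter, transiently transfected with the channel construct; plates were preincubated 30 min at 37 °C.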

[1] = 1 nM CNL001, first column so headed
[2] = 1 nM CNL001, second column so headed
[3] = 3 nM brd (TC-5619/Bradanicline)
[4] = 10 nM CNL001, first column so headed
[5] = 10 nM CNL001, second column so headed
[6] = 30 nM brd (TC-5619/Bradanicline)
[7] = 50 nM CNL001, first column so headed
[8] = 50 nM CNL001, second column so headed
[9] = 100 nM CNL001, first column so headed
[10] = 100 nM CNL001, second column so headed
[11] = 300 nM brd (TC-5619/Bradanicline)
[12] = 1 uM CNL001, first column so headed
[13] = 1 uM CNL001, second column so headed

B1: CODA217: engineered receptor: W77F in SEQ ID NO: 33 (protein)
chain: MRCSPGGVWLALAASLLHVSLQGEFQRKLYKELVKNYNPLERPVANDSQPLTVYFSLSLLQIMDVDEKNQVLTTNIFLQMSWTDHYLQWNVSEYPGVKTVRFPDGQIWKPDILLYNSADERFDATFHTNVLVNSSGHCQYLPPGIFKSSCPMDLKNFPMDVQTCKLKFGSWSYGGWSLDLQMQEADISGYIPNGEWDLVGIPGKRSERFYECCKEPYPDVTFTVTMRRRMGYYLIQMYIPSLLIVILSWISFWINMDAAPARVGLGITTVLTMTTQSSGSRASLPKVSYVKAIDIWMAVCLLFVFSALLEYAAVNFVSRQHKELLRFRRKRRHHKSPMLNLFQEDEAGEGRFNFSAYGMGPACLQAKDGISVKGANNSNTTNPPPAPSKSPEEMRKLFIQRAKKIDKISRIGFPMAFLIFNMFYWIIYKIVRREDVHNQ
modifications: synthetic sequence of chimeric LGIC
YFP fluorescence quenching using CNL001 (percent quench) [1]: −22.273%
YFP fluorescence quenching using CNL001 (percent quench) [2]: −19.415%
YFP fluorescence quenching using TC-5619/Bradanicline (percent quench) [3]: −12.1%
YFP fluorescence quenching using CNL001 (percent quench) [4]: −9.563%
YFP fluorescence quenching using CNL001 (percent quench) [5]: 6.398%
YFP fluorescence quenching using TC-5619/Bradanicline (percent quench) [6]: −14.72%
YFP fluorescence quenching using CNL001 (percent quench) [7]: 61.938%
YFP fluorescence quenching using CNL001 (percent quench) [8]: 66.837%
YFP fluorescence quenching using ABT-126 (percent quench) (50 nM abt (ABT-126)): 37.81%
YFP fluorescence quenching using CNL001 (percent quench) [9]: 79.791%
YFP fluorescence quenching using CNL001 (percent quench) [10]: 80.908%
YFP fluorescence quenching (percent quench) (100 nM CNL002): 67.81%
YFP fluorescence quenching using ABT-126 (percent quench) (100 nM abt (ABT-126)): 57.31%
YFP fluorescence quenching using AZD-0328 (percent quench) (100 nM azd0328): −7.57%
YFP fluorescence quenching using ABT-126 (percent quench) (300 nM abt (ABT-126)): 12.61%
YFP fluorescence quenching using AZD-0328 (percent quench) (300 nM azd0328): 7.08%
YFP fluorescence quenching using TC-5619/Bradanicline (percent quench) [11]: −6.3%
YFP fluorescence quenching using CNL001 (percent quench) [12]: 83.444%
YFP fluorescence quenching using CNL001 (percent quench) [13]: 83.905%
YFP fluorescence quenching (percent quench) (1 uM CNL002): 69.42%
YFP fluorescence quenching using ABT-126 (percent quench) (1 uM abt (ABT-126)): 66.05%
YFP fluorescence quenching (percent quench) (10 uM ach (acetylcholine)): −5.86%
YFP fluorescence quenching (percent quench) (30 uM CNL002): 73.64%
YFP fluorescence quenching using AZD-0328 (percent quench) (30 uM azd0328): 81.59%
YFP fluorescence quenching (percent quench) (100 uM ach (acetylcholine)): 70.06%
YFP fluorescence quenching (percent quench) (1 mM ach (acetylcholine)): 68.71%
YFP fluorescence quenching (percent quench) (3 mM ach (acetylcholine)): 73.45%
YFP fluorescence quenching using Facinicline, 30 nM fac: −10.14
YFP fluorescence quenching using Facinicline, 300 nM fac: 68.29
YFP fluorescence quenching using Facinicline, 30 uM fac: 87.35
YFP fluorescence quenching using TC-6987, 1 uM tc6987: −10.35
YFP fluorescence quenching using TC-6987, 10 uM tc6987: −13.93
YFP fluorescence quenching using TC-6987, 500 uM tc6987: −7.54
YFP fluorescence quenching using Varenicline, 3 nM var (first column): 5.662
YFP fluorescence quenching using Varenicline, 3 nM var (second column): 7.57
YFP fluorescence quenching using Varenicline, 30 nM var (first column): 13.968
YFP fluorescence quenching using Varenicline, 30 nM var (second column): 19.079
YFP fluorescence quenching using Varenicline, 300 nM var (first column): 16.183
YFP fluorescence quenching using Varenicline, 300 nM var (second column): 18.025
YFP fluorescence quenching using Varenicline, 500 nM var (first column): 23.366
YFP fluorescence quenching using Varenicline, 500 nM var (second column): 19.206
YFP fluorescence quenching using Varenicline, 1 uM var (first column): 34.69
YFP fluorescence quenching using Varenicline, 1 uM var (second column): 30.504

B2: CODA75: non-responding chimeric engineered receptor used as the negative control (protein)
chain: MRCSPGGVWLALAASLLHVSLQGEFQRKLYKELVKNYNPLERPVANDSQPLTVYFSLSLLQIMDVDEKNQVLTTNIWLQMSWTDHYLQWNVSEYPGVKTVRFPDGQIWKPDILLYNSADERFDATFHTNVLVNSSGHCQYLPPGIFKSSCYIDVRWFPFDVQHCKLKFGSWSYGGWSLDLQMQEADISGYIPNGEWDLVGIPGKRSERFYECCKEPYPDVTFTVTMRRRTGYYLIQMYIPSLLIVILSWISFWINMDAAPARVGLGITTVLTMTTQSSGSEIMPATSDSVPLIAQAIDIWMAVCLLFVFSALLEYAAVNFVSRQHKELLRFRRKRRHHKSPMLNLFQEDEAGEGRFNFSAYGMGPACLQAKDGISVKGANNSNTTNPPPAPSKSPEEMRKLFIQRAKKIDKISRIGFPMAFLIFNMFYWIIYKIVRREDVHNQ
modifications: synthetic sequence of chimeric LGIC
notes: non-responding chimeric engineered receptor used as the negative control
YFP fluorescence quenching using CNL001 (percent quench) [1]: −8.496%
YFP fluorescence quenching using CNL001 (percent quench) [2]: −2.266%
YFP fluorescence quenching using TC-5619/Bradanicline (percent quench) (1 nM brd (TC-5619/Bradanicline)): −13.39%
YFP fluorescence quenching using TC-5619/Bradanicline (percent quench) [3]: −15.78%
YFP fluorescence quenching using CNL001 (percent quench) [4]: 1.816%
YFP fluorescence quenching using CNL001 (percent quench) [5]: −4.649%
YFP fluorescence quenching using TC-5619/Bradanicline (percent quench) (10 nM brd (TC-5619/Bradanicline)): −13.47%
YFP fluorescence quenching using TC-5619/Bradanicline (percent quench) [6]: −16.41%
YFP fluorescence quenching using CNL001 (percent quench) [7]: −5.922%
YFP fluorescence quenching using CNL001 (percent quench) [8]: −5.597%
YFP fluorescence quenching using ABT-126 (percent quench) (50 nM abt (ABT-126)): −17.07%
YFP fluorescence quenching using CNL001 (percent quench) [9]: −8.159%
YFP fluorescence quenching using CNL001 (percent quench) [10]: −5.058%
YFP fluorescence quenching (percent quench) (100 nM CNL002): −7.94%
YFP fluorescence quenching using ABT-126 (percent quench) (100 nM abt (ABT-126)): −16.76%
YFP fluorescence quenching using AZD-0328 (percent quench) (100 nM azd0328): −8.83%
YFP fluorescence quenching using ABT-126 (percent quench) (300 nM abt (ABT-126)): −16.76%
YFP fluorescence quenching using AZD-0328 (percent quench) (300 nM azd0328): −11.15%
YFP fluorescence quenching using TC-5619/Bradanicline (percent quench) [11]: −17.56%
YFP fluorescence quenching using ABT-126 (percent quench) (500 nM abt (ABT-126)): −14.68%
YFP fluorescence quenching using CNL001 (percent quench) [12]: −4.272%
YFP fluorescence quenching using CNL001 (percent quench) [13]: −1.281%
YFP fluorescence quenching (percent quench) (1 uM CNL002): −9.81%
YFP fluorescence quenching using ABT-126 (percent quench) (1 uM abt (ABT-126)): −16%
YFP fluorescence quenching using ABT-126 (percent quench) (3 uM abt (ABT-126)): −14.11%
YFP fluorescence quenching using ABT-126 (percent quench) (10 uM abt (ABT-126)): −13.98%
YFP fluorescence quenching (percent quench) (10 uM ach (acetylcholine)): −12.88%
YFP fluorescence quenching (percent quench) (30 uM CNL002): −15.27%
YFP fluorescence quenching using ABT-126 (percent quench) (30 uM abt (ABT-126)): −21.05%
YFP fluorescence quenching (percent quench) (30 uM ach (acetylcholine)): −18.67%
YFP fluorescence quenching using AZD-0328 (percent quench) (30 uM azd0328): −11.92%
YFP fluorescence quenching using ABT-126 (percent quench) (50 uM abt (ABT-126)): −21.35%
YFP fluorescence quenching (percent quench) (50 uM ach (acetylcholine)): −0.29%
YFP fluorescence quenching using ABT-126 (percent quench) (100 uM abt (ABT-126)): −24.12%
YFP fluorescence quenching (percent quench) (100 uM ach (acetylcholine)): −14.46%
YFP fluorescence quenching (percent quench) (300 uM ach (acetylcholine)): −16.31%
YFP fluorescence quenching (percent quench) (500 uM ach (acetylcholine)): −17.41%
YFP fluorescence quenching (percent quench) (1 mM ach (acetylcholine)): −16.46%
YFP fluorescence quenching (percent quench) (3 mM ach (acetylcholine)): −12.38%
YFP fluorescence quenching (percent quench) (5 mM ach (acetylcholine)): −20.88%
YFP fluorescence quenching (percent quench) (10 mM ach (acetylcholine)): −8.69%
YFP fluorescence quenching using Facinicline, 30 nM fac: −11.68
YFP fluorescence quenching using Facinicline, 100 nM fac (ligand Facinicline 100 nM): 4.35
YFP fluorescence quenching using Facinicline, 300 nM fac: −10.55
YFP fluorescence quenching using Facinicline, 30 uM fac: −5.25
YFP fluorescence quenching using TC-6987, 1 uM tc6987: −11.79
YFP fluorescence quenching using TC-6987, 10 uM tc6987: −14.31
YFP fluorescence quenching using TC-6987, 500 uM tc6987: −19.65
YFP fluorescence quenching using Varenicline, 3 nM var (first column): 4.161
YFP fluorescence quenching using Varenicline, 3 nM var (second column): −6.216
YFP fluorescence quenching using Varenicline, 30 nM var (first column): −5.173
YFP fluorescence quenching using Varenicline, 30 nM var (second column): −6.593
YFP fluorescence quenching using Varenicline, 300 nM var (first column): −5.733
YFP fluorescence quenching using Varenicline, 300 nM var (second column): −7.312
YFP fluorescence quenching using Varenicline, 500 nM var (first column): −10.35
YFP fluorescence quenching using Varenicline, 500 nM var (second column): −7.586
YFP fluorescence quenching using Varenicline, 1 uM var (first column): −5.637
YFP fluorescence quenching using Varenicline, 1 uM var (second column): −3.757
